Experimental findings from PMC9129042 (PLoS ONE, 2022) are described below.

In this test the target is WA-1 NTD probe (SARS-CoV-2 WA-1, UniProt P0DTC2, biotin on the AVI tag (…)). Put plainly: BLI. Particulars: both partners purified.

B1: 5–7 (antibody, V domains shown)
VH: QVQLVQSGAEVKKPGASVKVSCKASGYTFTSYYMHWVRQAPGQGLEWMGVINPSGGSTSYAEKFRGRVTMTRDTSTSTVYMELSSLRSEDTAVYYCARDREPHSDSSGYWDSLKYYYYYALDVWGQGTTVTVSS
VL: AIQLTQSPSSLSASVGDRVTITCRASQGISSYLAWYQQKPGKAPELLIYAASTLQSGVPSRFSGSGSGTDFTLTISSLQPEDFATYYCQQLNTYPFTFGPGTKVDIK
notes: also called antibody 5-7
Regarding B1, the binding result was “binds”.
